# Measured values from publication PMC4300948 (Nanoscale, 2014).
# Where no end group is shown, it is not given here.
# Experiments:
# [1] = molecular target: FVIII free human von Willebrand factor (VWF) (human, UniProt P04275 764-2813)
# [2] = molecular target: physiologic human von Willebrand factor (VWF) (human, UniProt P04275 764-2813)
binder,measurement,setting,value
"TRYLRIHPQSWVHQI (also: lipid-peptide bioconjugate, displayed on liposome surface) [VWF-binding peptide (VBP), FVIII-derived, decorated on liposomal nanoconstructs]",binding result,[1],binds
same,binding result,[2],binds
